The source of these data is the supplement of paper PMC9112550, “Optimization of the antimicrobial peptide Bac7 by deep mutational scanning” (BMC Biology, 2022).
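Further: peptides expressed intracellularly from a pBAD plasmid library in pooled LB shake-flask culture, induced with 0.3% L-arabinose, DNA abundance read by NGS, three biological replicates, DESeq2 with apeglm shrinkage.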

The subject of the data set is Escherichia coli TOP10. The data set can be described thus: shrunken log2 fold change of peptide-encoding DNA abundance (4.5 h post-induction vs induction); higher = less antimicrobial activity (less host growth inhibition). The following applies: time post-induction: 4.5 h; library: site-saturation at positions 5, 18, 19, 20.
RRIRSRPPRLPRPRPRPMYQPRP: the “shrunken log2 fold change” value was -0.594.

For RRIRDRPPRLPRPRPRPWCMPRP, the “shrunken log2 fold change” value is -1. With RRIRNRPPRLPRPRPRPFRHPRP, the “shrunken log2 fold change” value was -0.727. The figure for RRIRSRPPRLPRPRPRPCGPPRP is 0.118; for RRIRIRPPRLPRPRPRPAIVPRP it is -0.135; for RRIRGRPPRLPRPRPRPWRYPRP it is 0.122. The figure for RRIRVRPPRLPRPRPRPQQLPRP is -0.0555; for RRIRRRPPRLPRPRPRPVFKPRP it is -0.0974. As for RRIRIRPPRLPRPRPRPGDGPRP, the figure is 0.281; as for RRIRERPPRLPRPRPRPFIYPRP, -0.0998; as for RRIRDRPPRLPRPRPRPSFGPRP, -0.0644. As for RRIRIRPPRLPRPRPRPTEKPRP, the “shrunken log2 fold change” value was determined as 0.0176. With RRIRRRPPRLPRPRPRPGRYPRP, the “shrunken log2 fold change” value was found to be 0.218. RRIRYRPPRLPRPRPRPTMPPRP: the “shrunken log2 fold change” value is -0.725. With RRIRERPPRLPRPRPRPKSFPRP, the “shrunken log2 fold change” value is 0.0203. In the case of RRIRARPPRLPRPRPRPKKFPRP, the “shrunken log2 fold change” value turned out to be 0.138. As for RRIRSRPPRLPRPRPRPRKCPRP, the figure is 0.149; as for RRIRLRPPRLPRPRPRPDKHPRP, -0.971; as for RRIRFRPPRLPRPRPRPQSIPRP, 0.0159. As for RRIRARPPRLPRPRPRPREVPRP, the figure is 0.738; as for RRIRCRPPRLPRPRPRPLDQPRP, 0.221. As for RRIRWRPPRLPRPRPRPIPMPRP, the figure is 0.112; as for RRIRYRPPRLPRPRPRPGNIPRP, -0.153.

In the case of RRIRKRPPRLPRPRPRPATFPRP, the “shrunken log2 fold change” value is -0.0215. As for RRIRMRPPRLPRPRPRPESIPRP, the figure is 0.522. The figure for RRIRGRPPRLPRPRPRPQYDPRP is 0.101. The figure for RRIRYRPPRLPRPRPRPSGTPRP is -0.175. RRIRMRPPRLPRPRPRPCLQPRP: the “shrunken log2 fold change” value was -0.0178. The figure for RRIRQRPPRLPRPRPRPCVFPRP is -0.049. As for RRIRIRPPRLPRPRPRPARFPRP, the figure is -0.0256; as for RRIRARPPRLPRPRPRPNCNPRP, -0.116. The figure for RRIRPRPPRLPRPRPRPPHPPRP is 0.292. Regarding RRIRPRPPRLPRPRPRPQERPRP, the “shrunken log2 fold change” value amounted to 0.0985. The figure for RRIRSRPPRLPRPRPRPEGMPRP is 0.392; for RRIRMRPPRLPRPRPRPESQPRP it is 2.59; for RRIRGRPPRLPRPRPRPTKVPRP it is 0.414. As for RRIRIRPPRLPRPRPRPNKHPRP, the figure is -0.727.

Consider RRIRARPPRLPRPRPRPHAAPRP, for which the “shrunken log2 fold change” value is 0.635. The figure for RRIRYRPPRLPRPRPRPYCMPRP is -0.918; for RRIRQRPPRLPRPRPRPMKTPRP it is 0.0802.

For the sequence RRIRTRPPRLPRPRPRPHVYPRP, the “shrunken log2 fold change” value was -0.496. The figure for RRIRRRPPRLPRPRPRPITNPRP is -0.19. For the sequence RRIRARPPRLPRPRPRPPTKPRP, the “shrunken log2 fold change” value came out at 0.486. As for RRIRGRPPRLPRPRPRPYRSPRP, the figure is -0.113; as for RRIRDRPPRLPRPRPRPSAEPRP, 0.162; as for RRIRHRPPRLPRPRPRPFDHPRP, -0.0277.

Regarding RRIRGRPPRLPRPRPRPNEHPRP, the “shrunken log2 fold change” value worked out at 0.435. The figure for RRIRTRPPRLPRPRPRPWTQPRP is 0.0256; for RRIRPRPPRLPRPRPRPQPKPRP it is 0.147; for RRIRNRPPRLPRPRPRPGVTPRP it is 0.0223. For RRIRIRPPRLPRPRPRPIGTPRP, the “shrunken log2 fold change” value was -0.792. As for RRIRNRPPRLPRPRPRPHYMPRP, the figure is -0.389; as for RRIRYRPPRLPRPRPRPHGLPRP, 0.0126. As to RRIRTRPPRLPRPRPRPAFYPRP, the “shrunken log2 fold change” value came to 0.116. The figure for RRIRIRPPRLPRPRPRPKLGPRP is -0.217. Turning to RRIRRRPPRLPRPRPRPNQGPRP, the “shrunken log2 fold change” value was found to be 0.134. The figure for RRIRFRPPRLPRPRPRPDVDPRP is 0.0167; for RRIRERPPRLPRPRPRPLIWPRP it is -0.364; for RRIRSRPPRLPRPRPRPAWTPRP it is 0.0161. The figure for RRIRIRPPRLPRPRPRPVYNPRP is -0.314; for RRIRDRPPRLPRPRPRPVQKPRP it is -0.0131; for RRIRGRPPRLPRPRPRPMCFPRP it is 0.716.

On to RRIRKRPPRLPRPRPRPFRKPRP, for which the “shrunken log2 fold change” value was -0.304. As for RRIRERPPRLPRPRPRPSRNPRP, the figure is -0.207; as for RRIRCRPPRLPRPRPRPWDWPRP, 0.313. As for RRIRWRPPRLPRPRPRPGISPRP, the figure is -0.00138.

For the sequence RRIRPRPPRLPRPRPRPLVMPRP, the “shrunken log2 fold change” value came out at 0.0377.

In the case of RRIRPRPPRLPRPRPRPYNHPRP, the “shrunken log2 fold change” value is -1.2. As for RRIRQRPPRLPRPRPRPVAYPRP, the “shrunken log2 fold change” value was -0.0015. Consider RRIRPRPPRLPRPRPRPLEEPRP, for which the “shrunken log2 fold change” value is 0.215. The figure for RRIRPRPPRLPRPRPRPTYLPRP is -0.113; for RRIRRRPPRLPRPRPRPVKFPRP it is 0.0517; for RRIRTRPPRLPRPRPRPTWSPRP it is 0.256. As for RRIRMRPPRLPRPRPRPTAPPRP, the figure is 0.905; as for RRIRWRPPRLPRPRPRPFSTPRP, -0.14; as for RRIRNRPPRLPRPRPRPVVRPRP, 0.12. With RRIRYRPPRLPRPRPRPETVPRP, the “shrunken log2 fold change” value was -0.0477. RRIRDRPPRLPRPRPRPEHIPRP: the “shrunken log2 fold change” value was -0.193. As for RRIRPRPPRLPRPRPRPMPSPRP, the figure is -0.0976; as for RRIRYRPPRLPRPRPRPNMAPRP, -0.00884; as for RRIRERPPRLPRPRPRPNMRPRP, 0.131. As to RRIRPRPPRLPRPRPRPCERPRP, the “shrunken log2 fold change” value was 0.0579. RRIRTRPPRLPRPRPRPNTEPRP: the “shrunken log2 fold change” value was -0.011. Consider RRIRCRPPRLPRPRPRPHWAPRP, for which the “shrunken log2 fold change” value amounted to 0.244. The figure for RRIRVRPPRLPRPRPRPFPFPRP is -0.199; for RRIRIRPPRLPRPRPRPKSKPRP it is -0.298; for RRIRQRPPRLPRPRPRPSQPPRP it is -0.267. As for RRIRLRPPRLPRPRPRPCLEPRP, the figure is -0.052; as for RRIRERPPRLPRPRPRPSEWPRP, -0.0737; as for RRIRIRPPRLPRPRPRPQRHPRP, -0.401.

RRIRKRPPRLPRPRPRPYVCPRP: the “shrunken log2 fold change” value was -0.0742. RRIRVRPPRLPRPRPRPQWEPRP: the “shrunken log2 fold change” value was 0.0101. As for RRIRHRPPRLPRPRPRPVNDPRP, the figure is -0.0193. The figure for RRIRTRPPRLPRPRPRPLYLPRP is -0.558; for RRIRCRPPRLPRPRPRPSLWPRP it is -0.0313. On to RRIRIRPPRLPRPRPRPAPVPRP, for which the “shrunken log2 fold change” value is 0.171. As for RRIRWRPPRLPRPRPRPHAPPRP, the figure is 0.517; as for RRIRDRPPRLPRPRPRPCLPPRP, -0.272. Consider RRIRFRPPRLPRPRPRPCKRPRP, for which the “shrunken log2 fold change” value amounted to 0.0187. As for RRIRCRPPRLPRPRPRPGIVPRP, the figure is -0.0688; as for RRIRCRPPRLPRPRPRPMYCPRP, -1.66; as for RRIRPRPPRLPRPRPRPEQAPRP, 0.0776.

In the case of RRIRNRPPRLPRPRPRPKTIPRP, the “shrunken log2 fold change” value was -0.14. The figure for RRIRLRPPRLPRPRPRPERTPRP is 0.098. As for RRIRHRPPRLPRPRPRPEPLPRP, the figure is 0.0544.

As for RRIRLRPPRLPRPRPRPHPVPRP, the “shrunken log2 fold change” value came out at 0.0604.

Consider RRIRVRPPRLPRPRPRPTFNPRP, for which the “shrunken log2 fold change” value came to 0.127. The figure for RRIRTRPPRLPRPRPRPIFGPRP is -0.0261.

On to RRIRCRPPRLPRPRPRPLGWPRP, for which the “shrunken log2 fold change” value is 0.506.

RRIRVRPPRLPRPRPRPPEAPRP: the “shrunken log2 fold change” value is -0.0358. The figure for RRIRDRPPRLPRPRPRPHQFPRP is -0.282; for RRIRLRPPRLPRPRPRPFGKPRP it is -0.168. Turning to RRIRPRPPRLPRPRPRPCEPPRP, the “shrunken log2 fold change” value is -0.00302. The figure for RRIRFRPPRLPRPRPRPSAMPRP is -0.0766; for RRIRKRPPRLPRPRPRPIKEPRP it is -0.0178. With RRIRCRPPRLPRPRPRPMMDPRP, the “shrunken log2 fold change” value is -0.117. The figure for RRIRLRPPRLPRPRPRPPIEPRP is -0.424. As for RRIRLRPPRLPRPRPRPGYKPRP, the “shrunken log2 fold change” value was -0.514. The figure for RRIRERPPRLPRPRPRPIWCPRP is 0.000213. As for RRIRCRPPRLPRPRPRPREEPRP, the figure is 1.43. Take RRIRRRPPRLPRPRPRPAVDPRP: the “shrunken log2 fold change” value is 0.204. The figure for RRIRMRPPRLPRPRPRPSCGPRP is 0.687. The figure for RRIRVRPPRLPRPRPRPDHTPRP is -0.428; for RRIRLRPPRLPRPRPRPWNFPRP it is -0.0899.

In the case of RRIRYRPPRLPRPRPRPLCWPRP, the “shrunken log2 fold change” value is -0.264.
